This series in a line: yeast display, Sf9 membrane polyspecificity reagent, FACS + sequencing; frameworks hold sequencing errors. The gist of the method: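 Sorting gates, low and high (top ~1%), were placed on anti-HA fluorescence to track expression and on streptavidin fluorescence to track reagent binding. A clone's polyreactivity label is taken from the gate it came out of. The reagent was 10% biotinylated, detergent-solubilized Sf9 membrane, applied for 1 hour at 4 °C to galactose-induced yeast display cells.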
For “QVQLVESGGGLVQAGGSLRLSCAASGGIFYGYAMGWYRQAPGKERELVAAISDSGGSTYYADSVKGRFTNSRDNAKYTGYVQMNSLKPEVTAVYYCATDAPVGGYVSEGDYWGQGTQVTVSS”, the “polyreactivity (PSR sort gate)” value is “low polyreactivity”. “QLQLVESGGGLDQAGCSLRLSCAASRTIITRNAMGWYRPAPGKESELVASINSGGSTYYADSVKGRFTISRDNAKNTVYLQMNSLKPDDTAVYYCAVEEDRYYYDDYDYWGQGTQVTVSS”: the “polyreactivity (PSR sort gate)” value is recorded as “low polyreactivity”. For “QVQLVESGGGLFQAGGSLRLSCAASGRTFGYYAMGWYRQAPGKERELVAAITGDATTYYADSVKGRFTISRDNAKNTVYLQMNSLQPEDTAVYYCDALFTPALSEYDYWGQGTQVTVSS”, the “polyreactivity (PSR sort gate)” value was “high polyreactivity”. With “QVQLVESGGGLVQAGGSLRLSCAASGRIFDIYAMGWYRPAPRKERELVAAITRRGGTTYADSVKGRFTISRDNAKNTVYLQMNSLKPEVNAVYYCAAGLYFRKWYSWTRYEYWGQGTQVTVSS” the entry was “high polyreactivity”. On to “QVQLVESGGGLVQAGGSLRLSCAASGFTFFGNAMGWYRQAPGKERELVAAITGRAGRTYYADSVKGRFTISRDNAKNTVYLQMNSLKPEDTAVYYCAAKIRTSDMGYWGQGTQVTVSS”, for which the “polyreactivity (PSR sort gate)” value was “high polyreactivity”. For the sequence “QVQLVESGGGIVQAGRSLRLSCSASGFIFAIKAMGWYRQAPGKERELVAAITGGGSTSYADSVKGRFTISRDNAKNTVYLQMNSLKPEDTAVYYCATDRLTYTKYGYWGQGTQVTVSS”, the “polyreactivity (PSR sort gate)” value is recorded as “low polyreactivity”. “QDQLVESGGGLVQAGGSLRLSCAASGRIFEGNAMGWYRQAPGKEREFLAAISDGGSTNYADSVKGRFTISRDNAKNTVYLQLNSLKPEETAVYYCNVGANVYMLYFPSRGGVYDYGYWGQGTQVNVSS”: the “polyreactivity (PSR sort gate)” value was “low polyreactivity”. The value for “QVQLVESGGGLVQAGGSLRLSCAASGSTFHRNAMGWYRPAQGKERELVASISIGGSTNYADSVKGRVTISRDNAKNTVYLQMNSLKPEDTAVYYCATEPNPRRPRVDYDYWGQGTQVTVSS” was “low polyreactivity”; that for “QVQLVESGGGLVQAGGTLRLSCAASGSTFAANAMGWYRQAPGKERELVAAITSSGGSTYYADSVKGRFTISRDNAKNTVYLQMNSLKPEDTAVYYCNTDIERYVRIYDSWGQGTQVTVSS” was “low polyreactivity”.

For “QVQLVESGGGLVQAGGSLRLSCADSGSIFAYNGMGWKRQAPGKERELVAAISRGGRTSYADSVKGRFTISRDNAKNTVYLQMNSVKPEDTAVYYCNAVYRWFSSAYVYSSGYNGDYWGQGTQVTVSS”, the “polyreactivity (PSR sort gate)” value is on record as “high polyreactivity”. Consider “QVQLVESGAGLVQAGGSLRLSCAASGSIFYYYAMGWYRQAPGKEREFVAAIRESGGSTYYADSVKGRFTISRDNAKNTVYLQMNSLKPEDTAVYYCAVRRPRRNYNYPYDYWGLGTQVTVSS”, for which the “polyreactivity (PSR sort gate)” value is “low polyreactivity”.

“QVQLEESGGGIVQAGGSLRLSCAASGRTCSNYAMGWNRQAPGKERQLVASIRSSGTSTYYADSVKGRFTISRDIAKNTVYLKMNSLKPEDTAVYYCAKRYFTWSSTYNYWGQGTQVTVSS”: the “polyreactivity (PSR sort gate)” value is listed as “high polyreactivity”. As for “QVQLVESGGGLVQAGGSLRLSCAAYGRTFDTYAMGGYRQAPGKERELVAAITKGGGSTYYADSVKGRFTISRDNAKNTVYLQMNSLKPEDTAVYYCNDRVHGEYFHGIRYYYWGQGTQVTVSS”, the “polyreactivity (PSR sort gate)” value is reported as “low polyreactivity”. As for “QVQLVESGGGLVQAGGSLRLSCAASGLIFYGNAMGWYRQSPGKDRELVAAISRRGGRTYYADSVKGRFTISRDNAENTVYLQMNSLKPEDTAVYYCSAQYSYPYYKVTLYYWGQGTQVTVSS”, the “polyreactivity (PSR sort gate)” value is on record as “high polyreactivity”. The value for “QVQLVESGGGLVQAGGSLRLSCAASGSTFKRYAMGWYRQAPGKERELVAANSASGGSTSYADSVKGRFTISRDNAKITVYLQMNSLTPEDTAVYYCAPYYWLYSSSYDYWGQGTQVTVSS” was “high polyreactivity”; that for “QVHLVESGGGLVQAGCSLRLICAASGRIFTLYAMGWYRQAPGTEMEFVAAINRGGSTNYADSVKGRFTISRDNAKNTVYLQMNSLKPEVTAVYYCAAITTSRFRTYSYDYWGQGTKVTVSS” was “high polyreactivity”; that for “QVQLVESGGGLVQAGGSLRLSCAASGRTFGYNGMGWYRQAPGKEREFVAAITWSGGRTYYADSVKGRFTISRDKAKNTVYLQMNSLKPEDTAVYYCAAGKYRYTYYALEYDYWGQGTQVTVSS” was “low polyreactivity”. With “QVQLVESGGGLVHAGGSLRLSSAASGRTFKVYAMGWYRQAPGKERELVAAITGGGSTNYADSVKGRFTISRDNAKNTVYLQMYSLKPEDTAVYYCNARYYYRLVKWSRFSSYDYWGQGTQVTVSS” the entry was “low polyreactivity”. The value for “QVQLVESGGGLVQAGGSLRLSCAASGFTFAGYAMGWYRQAPGKERELVAPINRGGSTYYADSVKGRFTISRDNAKNTVYLQMNSLKQEDTAVYYCADRQEPGWYPDVWWEYDYWGQGTQVTVSS” was “low polyreactivity”; that for “QVQLVESGGGLVQAGGSLRLSCAASGSTFPRYALGWYRQAPGKERELVAAISRSGGSTYYADSVKGRFTISRDNAKNTVYLQMNSLKPEDTAVYYCAARYERGSYKYDYWGQGTQVTVSS” was “high polyreactivity”; that for “QVQLVESGGGLVQAGGSLRLSCADSGRTFYYYAMGWYRQAPGKERELVASISYSAGRTYADSVKGRFTISRDNAKNTVYLQMNSLKPEDTAVYYCNADVTTVPYTNDYWGQGTQVTVSS” was “high polyreactivity”. For the sequence “QVQLVESGGGLVEAGGSLRLSCAASGNIFVNYAMEWYRQAPGKERELVAAISWSGGSTYYADSVKGRFTISRDNAKNTVYLQINRLKAEDTAVYYCAADYTGHLYYYWVQGTQVTVSS”, the “polyreactivity (PSR sort gate)” value was “low polyreactivity”. With “QVQLVESGGALVQAGGSLRISCAASGLIITHYAMGWYRQAPGKEMELVAAISNGGSTNYADSEKGRFTISRDNAKNTVYLEMNSLKPEDTAVSFCNARPNKYYAYPATRGKYYYWGQATQVTVSS” the entry was “low polyreactivity”; with “QVQLVETGGGLVQAGGSLRLSCAASGGIFGRNAMGWYRQAPGKERELVASISKSGGSTYYADSVKGRFTISRDNAKNTVYLQMNSLKPEDTAVYYCAARYSYFNWDNYYWGQGTQVTVSS”, “high polyreactivity”; with “QVQLVESGGGLVQAGGSLRLSCAASGFTFPYYAMGWYRQAPGKERELVAAISRSGTSTNYADSVKGRFTISRDNAKNTVYLQMNSLKPEDTAVYYCATARRQGKVIQYYYWGQGTQVTVSS”, “high polyreactivity”.

On to “QVQLVESGGGLLQAGGSLRLSCAASGRTYYTNAMGWYRQAPGKERELVAAISRGGGRTYYADSVKGRFTISRDNAMNSVYLQMNSLKPEDTAVYYCAASPYQGQGREYYYWGQGTQVTESS”, for which the “polyreactivity (PSR sort gate)” value is “high polyreactivity”. With “QVQLVESGGGLVQAGGSLRLSCAASGRIFRYNAMGWYRQAPGKERELVASITSAGSTIYADSVKGRFTISRDNAKNTVYLQMNSLKPEDTAVYYCNKRRAYGYYLFDYWGQGTQVTVSS”, the “polyreactivity (PSR sort gate)” value is reported as “high polyreactivity”. In the case of “QVQLVESGGGLVQAGGSLRLSCAASGFIFSANDMGGYRQAPGKERELVADIDSSGRTNYADSVKGRFTISRDNAKNTVYLQMNSLNPEDTAVYYCATPPDDKGGGYLGYDYWGQGTEVTVSS”, the “polyreactivity (PSR sort gate)” value is given as “low polyreactivity”. On to “QFQLVESGGGLVQAGGSLRLSCAASGRTLSSYDMGWYRQAPGKERELVAAISRGGSTYYADSVKGRFTISRDNAKNTVYLQMNSLKPEDTAVYYCAASFYGGYWGYDYWGQGTQVTVSS”, for which the “polyreactivity (PSR sort gate)” value is “high polyreactivity”. “QVQLVESGGGLVQAGGSLRLSCAASGNIYRYYVMGWYRQAPGKEREFVAAITSSGGSTYYADSVKGRFTISRDNAKNTVYLQMNSLKPEDTAVFYCAKDYGDPGWAEYDYWGQGTQVTVSS”: the “polyreactivity (PSR sort gate)” value is “low polyreactivity”.

(Values after the nanobody polyreactivity screen of Harvey et al. (2022).)
